In patent US5534410, “TATA-binding protein associated factors drug screens” (The Regents of the University of California, dated 1996):

Columns and labels:
[1] = molecular target: T1, GST-NTF-1 fusion protein containing the N-terminal 284 amino acids of NTF-1 (Drosophila, UniProt P13002); experiment: GST-NTF-1 fusion binding assay
T1 sequence: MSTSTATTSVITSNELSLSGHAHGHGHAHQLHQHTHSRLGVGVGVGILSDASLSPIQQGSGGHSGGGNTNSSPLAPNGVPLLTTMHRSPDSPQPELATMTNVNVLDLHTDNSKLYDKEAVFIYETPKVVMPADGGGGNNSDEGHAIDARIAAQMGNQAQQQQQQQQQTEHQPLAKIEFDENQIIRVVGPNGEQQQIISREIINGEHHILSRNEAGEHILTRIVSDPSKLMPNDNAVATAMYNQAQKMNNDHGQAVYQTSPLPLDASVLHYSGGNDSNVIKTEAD

[2] = molecular target: acidic activation domain of GAL4 (residues 768-881) (Saccharomyces cerevisiae (strain ATCC …, UniProt P04386)); experiment: yeast two-hybrid
[3] = molecular target: control resin that lacked Sp1 (streptavidin-agarose with biotinylated oligonucleotides) (Streptomyces avidinii, UniProt P22629); experiment: 35S-TAF110 on control DNA affinity resin, SDS-PAGE, autoradiography
[4] = molecular target: T2, Drosophila TATA-binding protein (dTBP) (Drosophila, UniProt P20227); experiment: coimmunoprecipitation of in vitro expressed proteins
T2 sequence: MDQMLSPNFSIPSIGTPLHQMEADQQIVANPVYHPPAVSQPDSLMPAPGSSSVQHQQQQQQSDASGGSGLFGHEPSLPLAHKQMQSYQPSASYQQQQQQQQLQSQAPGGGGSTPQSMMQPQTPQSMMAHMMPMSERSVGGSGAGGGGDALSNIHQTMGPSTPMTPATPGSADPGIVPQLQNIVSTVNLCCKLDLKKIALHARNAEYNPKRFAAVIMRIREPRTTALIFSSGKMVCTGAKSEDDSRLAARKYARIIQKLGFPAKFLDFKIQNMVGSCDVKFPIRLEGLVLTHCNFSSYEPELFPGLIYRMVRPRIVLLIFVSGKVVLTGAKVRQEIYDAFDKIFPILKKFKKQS

radiolabeled nTBP = radiolabeled nTBP (Homo sapiens (Human), UniProt P20226); experiment: Far Western with radiolabeled probe
[5] = molecular target: human TATA-binding protein (hTBP) (human, UniProt P20226); experiment: Far Western of immunoprecipitated hTFIID complex with 35S-labeled hTBP
[6] = molecular target: Sp1, over-expressed and purified from HeLa cells infected with a vaccinia virus expression vector (Homo sapiens (Human), UniProt P08047); experiment: in vitro binding to DNA-bound Sp1 resin

B1: dTAFII40 (other)
chain: MSAEKSDKAKISAQIKHVPKDAQVIMSILKELNVQEYEPRVVNQLLEFTFRYVTCILDDAKVYANHARKKTIDLDDVRLATEVTLDKSFTGPLERHVLAKVADVRNSMPLPPIKPHCGLRLPPDRYCLTGVNYKLRATNQPKKMTKSAVEGRPLKTVVKPVSSANGPKRPHSVVAKQQVVTIPKPVIKFTTTTTTKTVGSSGGSGGGGGQEVKSESTGAGGDLKMEVDSDAAAVGSIAGASGSGAGSASGGGGGGGSSGVGVAVKREREEEEFEFVTN
B1: no binding [1].

B2: G4-110 (fl): full-length TAF110 fused to the DNA binding domain of GAL4, G4(1-147) (other)
chain: MNTSQTAAGNRITFTSQPLPNGTISIAGNPGAVISTAQLPNTTTIKTIQAGIGGQHQGLQQVHHVQQQQQSQQQQQQQQQTQSAGQPLLNSMLPAGVVVGMRQQAPSQQQQKNVPTNPLSRVVINSHMAGVRPQSPSITLSTLNTGQTPALLVKTDNGFQLLRVGTTTGPPTVTQTITNTSNNSNTTSTTNHPTTTQIRLQTVPAAASMTNTTATSNIIVNSVASSGYANSSQPPHLTQLNAQAPQLPQITQIQTIPAQQSQQQQVNNVSSAGGTATAVSSTTAATTTQQGNTKEKCRKFLANLIELSTREPKPVEKNVRTLIQELVNANVEPEEFCDRLERLLNASPQPCLIGFLKKSLPLLRQALYTKELVIEGIKPPPQHVLGLAGLSQQLPKIQAQIRPIGPSQTTTIGQTQVRMITPNALGTPRPTIGHTTISKQPPNIRLPTAPRLVNTGGIRTQIPSLQVPGQANIVQIRGPQHAQLQRTGSVQIRATTRPPNSVPTANKLTAVKVGQTQIKAITPSLHPPSLAAISGGPPPTPTLSVLSTLNSASTTTLPIPSLPTVHLPPEALRAREQMQNSLNHNSNHFDAKLVEIKAPSLHPPHMERINASLTPIGAKTMARPPPAINKAIGKKKRDAMEMDAKLNTSSGGAASAANSFFQQSSMSSMYGDDDINDVAAMGGVNLAEESQRILGCTENIGTQIRSCKDEVFLNLPSLQARIRAITSEAGLDEPSQDVAVLISHACQERLKNIVEKLAVIAEHRIDVIKLDPRYEPAKDVRGQIKFLEELDKAEQKRHEELEREMLLRAAKSRSRVEDPEQAKMKARAKEMQRAEMEELRQRDANLTALQAIGPRKKLKLDGETVSSGAGSSGGGVLSSSGSAPTTLRPRIKRVNLRDMLFYMEQEREFCRSSMLFKTYLK
B2: no binding [2].

B3: Drosophila TAF110 (dTAFII110), full-length (other)
chain: B2 chain
B3: no binding [3]; no binding [4].

B4: hTAFII250 (other)
chain: MGPGCDLLLRTAATITAAAIMSDTDSDEDSAGGGPFSLAGFLFGNINGAGQLEGESVLDDECKKHLAGLGALGLGSLITELTANEELTGTDGALVNDEGWVRSTEDAVDYSDINEVAEDESRRYQQTMGSLQPLCHSDYDEDDYDADCEDIDCKLMPPPPPPPGPMKKDKDQDSITGVSENGEGIILPSIIAPSSLASEKVDFSSSSDSESEMGPQEATQAESEDGKLTLPLAGIMQHDATKLLPSVTELFPEFRPGKVLRFLRLFGPGKNVPSVWRSARRKRKKKHRELIQEEQIQEVECSVESEVSQKSLWNYDYAPPPPPEQCLSDDEITMMAPVESKFSQSTGDIDKVTDTKPRVAEWRYGPARLWYDMLGVPEDGSGFDYGFKLRKTEHEPVIKSRMIEEFRKLEENNGTDLLADENFLMVTQLHWEDDIIWDGEDVKHKGTKPQRASLAGWLPSSMTRNAMAYNVQQGFAATLDDDKPWYSIFPIDNEDLVYGRWEDNIIWDAQAMPRLLEPPVLTLDPNDENLILEIPDEKEEATSNSPSKESKKESSLKKSRILLGKTGVIKEEPQQNMSQPEVKDPWNLSNDEYYYPKQQGLRGTFGGNIIQHSIPAVELRQPFFPTHMGPIKLRQFHRPPLKKYSFGALSQPGPHSVQPLLKHIKKKAKMREQERQASGGGEMFFMRTPQDLTGKDGDLILAEYSEENGPLMMQVGMATKIKNYYKRKPGKDPGAPDCKYGETVYCHTSPFLGSLHPGQLLQAFENNLFRAPIYLHKMPETDFLIIRTRQGYYIRELVDIFVVGQQCPLFEVPGPNSKRANTHIRDFLQVFIYRLFWKSKDRPRRIRMEDIKKAFPSHSESSIRKRLKLCADFKRTGMDSNWWVLKSDFRLPTEEEIRAMVSPEQCCAYYSMIAAEQRLKDAGYGEKSFFAPEEENEEDFQMKIDDEVRTAPWNTTRAFIAAMKGKCLLEVTGVADPTGCGEGFSYVKIPNKPTQQKDDKEPQPVKKTVTGTDADLRRLSLKNAKQLLRKFGVPEEEIKKLSRWEVIDVVRTMSTEQARSGEGPMSKFARGSRFSVAEHQERYKEECQRIFDLQNKVLSSTEVLSTDTDSSSAEDSDFEEMGKNIENMLQNKKTSSQLSREREEQERKELQRMLLAAGSAASGNNHRDDDTASVTSLNSSATGRCLKIYRTFRDEEGKEYVRCETVRKPAVIDAYVRIRTTKDEEFIRKFALFDEQHREEMRKERRRIQEQLRRLKRNQEKEKLKGPPEKKPKKMKERPDLKLKCGACGAIGHMRTNKFCPLYYQTNAPPSNPVAMTEEQEEELEKTVIHNDNEELIKVEGTKIVLGKQLIESADEVRRKSLVLKFPKQQLPPKKKRRVGTTVHCDYLNRPHKSIHRRRTDPMVTLSSILESIINDMRDLPNTYPFHTPVNAKVVKDYYKIITRPMDLQTLRENVRKRLYPSREEFREHLELIVKNSATYNGPKHSLTQISQSMLDLCDEKLKEKEDKLARLEKAINPLLDDDDQVAFSFILDNIVTQKMMAVPDSWPFHHPVNKKFVPDYYKVIVNPMDLETIRKNISKHKYQSRESFLDDVNLILANSVKYNGPESQYTKTAQEIVNVCYQTLTEYDEHLTQLEKDICTAKEAALEEAELESLDPMTPGPYTPQPPDLYDTNTSLSMSRDASVFQDESNMSVLDIPSATPEKQVTQEGEDGDGDLADEEEGTVQQPQASVLYEDLLMSEGEDDEEDAGSDEEGDNPFSAIQLSESGSDSDVGSGGIRPKQPRMLQENTRMDMENEESMMSYEGDGGEASHGLEDSNISYGSYEEPDPKSNTQDTSFSSIGGYEVSEEEEDEEEEEQRSGPSVLSQVHLSEDEEDSEDFHSIAGDSDLDSDE
B4: no binding (radiolabeled nTBP); binds [5].

B5: TAF110 deletion mutant 1-137 (other)
chain: MNTSQTAAGNRITFTSQPLPNGTISIAGNPGAVISTAQLPNTTTIKTIQAGIGGQHQGLQQVHHVQQQQQSQQQQQQQQQTQSAGQPLLNSMLPAGVVVGMRQQAPSQQQQKNVPTNPLSRVVINSHMAGVRPQSPS
B5: no binding [6].

B6: dTAFII80 (other)
chain: MSLEVSNINGGNGTQLSHDKRELLCLLKLIKKYQLKSTEELLCQEANVSSVELSEISESDVQQVLGAVLGAGDANRERKHVQSPAQGHKQSAVTEANAAEELAKFIDDDSFDAQHYEQAYKELRTFVEDSLDIYKHELSMVLYPILVQIYFKILASGLREKAKEFIEKYKCDLDGYYIEGLFNLLLLSKPEELLENDLVVAMEQDKFVIRMSRDSHSLFKRHIQDRRQEVVADIVSKYLHFDTYEGMARNKLQCVATAGSHLGEAKRQDNKMRVYYGLLKEVDFQTLTTPAPAPEEEDDDPDAPDRPKKKKPKKDPLLSKKSKSDPNAPSIDRIPLPELKDSDKLLKLKALREASKRLALSKDQLPSAVFYTVLNSHQGVTCAEISDDSTMLACGFGDSSVRIWSLTPAKLRTLKDADSLRELDKESADINVRMLDDRSGEVTRSLMGHTGPVYRCAFAPEMNLLLSCSEDSTIRLWSLLTWSCVVTYRGHVYPVWDVRFAPHGYYFVSCSYDKTARLWATDSNQALRVFVGHLSDVDCVQFHPNSNYVATGSSDRTVRLWDNMTGQSVRLMTGHKGSVSSLAFSACGRYLASGSVDHNIIIWDLSNGSLVTTLLRHTSTVTTITFSRDGTVLAAAGLDNNLTLWDFHKVTEDYISNHITVSHHQDENDEDVYLMRTFPSKNSPFVSLHFTRRNLLMCVGLFKS
B6: no binding [1].
